Source: the DeepSol protein solubility set

Test: soluble on expression in E. coli; label from the status in PepcDB or PDB records
With “MSLEMKTYIIEKLRETEAIYYIEILLAVESGSRAWGFASPDSDYDIRFIYRHSKDWYLTPWDKDETITFMTEDDLDGSGWDLNKTFHLLLKSNAALLSWFYSPIVYIENKSFTKLFKPLVDQCFSPIAVSFHYLSMSKKYLESCRNDEVKLKSYFYCLRTALSGKWITEKKTVPPVLFSDLLVLADSTIRTKIENLIALKATKGESYFHPNDWELFEFMERQISENEEKAKSLSGSKTDKAQMEKVFREIISEGHHHHHH” the “soluble on expression in E. coli” value was “not soluble”. For “MPSQITRSSHSSLPEVAPASGDAAGVSEQTPQQARTVAFFASGELAVAFGRTSTAPAQDSVRLLSALQRELDKQQPSWPTVAQLCHSLAEVAKTEQGWHQLASEDQAPAPALKDLLERCIGRLADMPASHASHDSLSLACEGLRTARLHQSVARLTARPPALARAIPDLLALTHLDPETLGAEPPVVSSYTLFSHFVHTAKQRTAELNDSLQRQPEAVVSLLRSHADTLNDLETLPGALQALTENCQDAPACNELRELAEVVGALLQLLREHGILPRLEAISIEPGEAPAPGHEAAEPRLTRSQALLKAGGNLVRKFDAYGALAPMDDKGLLALMRTPAPHLSPDQMHAFLNKHVLHLTQEQRDIVSNTPLPFAPEGDIEARCGMGFDEKLRLALANGSLVLSEEQLARLGHLPSAATTTSDVVKTLLEKPSSALSEAERDMLGAIVQANGQGQLDAWRAHNEQLPAVLSRSGLPSDVKDELLSLNQSMNAELGTLKNGASFKSRILASPAMLLALAPLPLAVAFVSKDNSYSSSLVAHFTKNAVFMAGLMMNELTNARTNVDHGLNRYFVTVLANAIVAQPTFARNEHLLEQVGFGIATAVASGAATLGVFNRESIVAAFKLAKSKLSRQDTGNASIPEEDHLAVVRHFDVSEHFAQQMKVATELYKQDKSITDIMNSSLTYLGTKSSEFQARFESVDALRAGLQLAEGERKADPDFYTKLGLVALTASIGAALVMLMKSMVGKADYAADGVWCVSEMLKLAMNPEVDMQKAVQVFKEIVGLNLVMTGFLGVNKVWNFLDKGIKGYASGAAVLTAANLTLPGMVGEVAGAAAGKGLSYLTDKGKAAHQAGRAAASWAGNYVGTSRLGSAVGTLQTAIPGRIAGGQVVAGLYDRFRYLTGSHPTPAQQAAGEP”, the “soluble on expression in E. coli” value was “not soluble”. In the case of “MTNATIAPTTTAAPVTKSVDAPTADENTPLFSPSLISPDVLAVLPADYTIRPLCRSDYKRGYLDVLRVLTTVGDINEEQWNSRYEWIRARSDEYYLLVVCDGEGRIVGTGSLVVERKFIHSLGMVGHIEDIAVEKGQQGKKLGLRIIQALDYVAEKVGCYKTILDCSEANEGFYIKCGFKRAGLEMAHYY”, the “soluble on expression in E. coli” value is reported as “soluble”. For “MTDHALLLVNLGSPASTQVADVRSYLNQFLMDPYVIDIPWPLRRLLVSLILIKRPEQSAHAYASIWWDEGSPLVVLSKRLQQAMKKEWSHGPVELAMRYGEPSIETVLTRLSEQGFKKVTLAPLYPQFADSTVTTVIEEAKRVVRAKSLKMQFSVLQPFYDQPEYVSALVESVRPHLEQPYDHLLLSFHGLPERHLHKRDPTGKHCLKDDCCMTAPAQVVATCYRAQCLQSAAAFAKRMGIPDGKWSVSFQSRLGRAKWIEPYTEARLDELAAQGVKKLLVMCPAFVADCIETLEEIGDRGAEQFKEAGGEELILVPCLNDDPNWAKELNRLCERAPLML”, the “soluble on expression in E. coli” value was “not soluble”. For “MTKSLFRQSFLTDTLDVHIDVAPAEQVLSNGVQLKLYQRGVLEVIPENPTQETKNIIISCGIHGDETAPMELVDSIIKDIESGFQKVDARCLFIIAHPESTLAHTRFLEENLNRLFDEKEHEPTKELAIADTLKLLVRDFYQDTEPKTRWHLDLHCAIRGSKHYTFAVSPKTRHPVRSKALVDFLDSAHIEAVLLSNSPSSTFSWYSAENYSAQALTMELGRVARIGENALDRLTAFDLALRNLIAEAQPEHLSKPCIKYRVSRTIVRLHDDFDFMFDDNVENFTSFVHGEVFGHDGDKPLMAKNDNEAIVFPNRHVAIGQRAALMVCEVKTRFEEGELVYDLEHHHHHH”, the “soluble on expression in E. coli” value was “soluble”. For “KRSNSIKRNPNAPVVRRGWLYKQDSTGMKLWKKRWFVLSDLCLFYYRDEKEEGILGSILLPSFQIALLTSEDHINRKYAFKAAHPNMRTYYFCTDTGKEMELWMKAMLDAALVQT”, the “soluble on expression in E. coli” value was “soluble”. For “MGSDKIHHHHHHQMEERLGNTSQELQSLQVQNIKLAGSLQHVAEKLCRELYNKAGAHRCSPCTEQWKWHGDNCYQFYKDSKSWEDCKYFCLSENSTMLKINKQEDLEFAASQSYSEFFYSYWTGLLRPDSGKAWLWMDGTPFTSELFHIIIDVTSPRSRDCVAILNGMIFSKDCKELKRCVCERRAGMVKPE”, the “soluble on expression in E. coli” value was “not soluble”.
